According to patent US20170355757A1 (Regeneron, published 2017):

B1: H4H12170P (antibody, human IgG4, V domains shown)
VH: QVQLVESGGGVVQPGRSLRLSCAASGFTFSGYGMHWVRQAPGKGLEWVALIWLDGSNDYYADSVKGRFTISRDNSKNTLYLQMNRLRAEDTAVYYCARDGPVAAIPDYWGQGTLVTVSS
VL: DIQMTQSPSTLSASVGDRVTITCRASQSISRWLAWYQLKPGKAPKLLIYKASSLESGVPSRFSGSGSGTDFTLTISSLQPDDFATYYCQQYNTYSYTFGQGTKLEIK
notes: Human IgG4 Fc with S108P hinge mutation (H4H)
B2: H4H12177P2 (antibody, human IgG4, V domains shown)
VH: EVQLVESGGGVVQRGESLRLSCSASDFIFKDYAMYWVRQIPGKGLEWISLISGDGDTTWYGDSVKGRFTISRDNNENSLFLQMNDLRTEDTAMYYCARDMGWNFFQLQYWGQGTLVTVSS
VL: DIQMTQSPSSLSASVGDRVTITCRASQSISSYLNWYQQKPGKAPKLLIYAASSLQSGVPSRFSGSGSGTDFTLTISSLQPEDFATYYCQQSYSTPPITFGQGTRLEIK
notes: as for B1

Legend:
[1] = molecular target: T1, monkey C5-mmh (monkey, UniProt P01031 19-1676 (human entry), limits assumed); assay: SPR, mAb captured via anti-hFc, 37C
T1 construct: Recombinant monkey C5 with a C-terminal myc-myc-hexahistidine tag
T1 chain: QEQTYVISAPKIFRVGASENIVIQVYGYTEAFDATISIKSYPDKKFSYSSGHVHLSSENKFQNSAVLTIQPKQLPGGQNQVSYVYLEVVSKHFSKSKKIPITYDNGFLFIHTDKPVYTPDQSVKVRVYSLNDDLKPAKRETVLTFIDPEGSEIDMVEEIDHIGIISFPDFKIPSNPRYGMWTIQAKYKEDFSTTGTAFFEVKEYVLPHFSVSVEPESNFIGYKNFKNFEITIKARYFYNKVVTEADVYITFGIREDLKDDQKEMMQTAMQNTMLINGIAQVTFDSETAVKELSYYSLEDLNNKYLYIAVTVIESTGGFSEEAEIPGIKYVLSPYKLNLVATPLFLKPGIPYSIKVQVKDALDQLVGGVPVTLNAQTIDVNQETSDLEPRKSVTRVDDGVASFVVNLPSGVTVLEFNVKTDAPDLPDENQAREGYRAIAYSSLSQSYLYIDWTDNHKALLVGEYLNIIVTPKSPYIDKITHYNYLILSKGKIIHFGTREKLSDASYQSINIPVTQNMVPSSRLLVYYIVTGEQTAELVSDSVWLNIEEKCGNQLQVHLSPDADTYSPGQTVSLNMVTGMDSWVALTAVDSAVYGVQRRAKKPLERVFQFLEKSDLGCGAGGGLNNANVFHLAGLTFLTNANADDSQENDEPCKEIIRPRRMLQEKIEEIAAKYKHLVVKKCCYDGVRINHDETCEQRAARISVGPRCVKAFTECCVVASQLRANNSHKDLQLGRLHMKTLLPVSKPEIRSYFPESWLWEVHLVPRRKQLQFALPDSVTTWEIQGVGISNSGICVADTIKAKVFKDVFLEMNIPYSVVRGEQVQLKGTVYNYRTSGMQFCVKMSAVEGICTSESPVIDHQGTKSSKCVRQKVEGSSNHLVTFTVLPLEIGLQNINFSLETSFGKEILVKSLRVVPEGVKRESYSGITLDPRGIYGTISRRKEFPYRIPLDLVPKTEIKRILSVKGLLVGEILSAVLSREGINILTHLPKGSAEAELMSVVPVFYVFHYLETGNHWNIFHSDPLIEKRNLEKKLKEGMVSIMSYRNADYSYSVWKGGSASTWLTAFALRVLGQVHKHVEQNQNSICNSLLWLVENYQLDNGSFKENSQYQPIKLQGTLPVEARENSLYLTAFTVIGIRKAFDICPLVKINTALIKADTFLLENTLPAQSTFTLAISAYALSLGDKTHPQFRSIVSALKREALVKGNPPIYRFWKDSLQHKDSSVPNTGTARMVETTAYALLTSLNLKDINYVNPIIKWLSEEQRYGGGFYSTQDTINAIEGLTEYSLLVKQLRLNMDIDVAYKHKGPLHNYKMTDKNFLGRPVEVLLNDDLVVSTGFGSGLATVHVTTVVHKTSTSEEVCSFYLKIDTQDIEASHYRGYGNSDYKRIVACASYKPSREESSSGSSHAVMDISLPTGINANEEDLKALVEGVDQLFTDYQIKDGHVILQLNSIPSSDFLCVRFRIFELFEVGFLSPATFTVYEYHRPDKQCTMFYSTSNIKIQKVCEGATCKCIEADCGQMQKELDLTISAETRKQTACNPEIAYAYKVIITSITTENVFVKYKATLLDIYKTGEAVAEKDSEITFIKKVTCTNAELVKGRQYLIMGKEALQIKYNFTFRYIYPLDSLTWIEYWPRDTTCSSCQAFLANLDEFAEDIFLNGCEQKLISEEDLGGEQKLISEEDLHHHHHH
Summary of the method: (§1)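 Anti-C5 mAbs were held by immobilised mouse anti-human Fc, and untagged or mmh-tagged C5 flowed 3 min, then buffer 8 min, in HBST pH 7.4.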

[2] = molecular target: T2, human C5 R885H-mmh (human, UniProt P01031 19-1676); assay: SPR, mAb captured via anti-hFc, 37C
T2 construct: also called human C5 variant R885H
Summary of the method: as §1

[3] = molecular target: T3, human C5 R885C-mmh (human, UniProt P01031 19-1676); assay: SPR, mAb captured via anti-hFc, 37C
T3 construct: also called human C5 variant R885C
Summary of the method: as §1

[4] = molecular target: T2, human C5 R885H-mmh; assay: SPR, mAb captured via anti-hFc, 25C
Summary of the method: as §1

[5] = molecular target: T3, human C5 R885C-mmh; assay: SPR, mAb captured via anti-hFc, 25C
Summary of the method: as §1

[6] = molecular target: T4, human C5 (human, UniProt P01031 19-1676); assay: SPR, mAb captured via anti-hFc, dissociation at pH7.4 vs pH6.0, 25C
T4 construct: Bought human C5 (EMD #204888, said elsewhere to be purified from plasma); also called hC5; complement component 5
Summary of the method: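 Anti-C5 mAbs (human IgG4 Fc) captured on an amine-coupled mouse anti-human Fc surface; recombinant C5 dissociation followed by Biacore T200 in PBS-T (0.01M phosphate, 0.15M NaCl, 0.05% Tween-20) at pH7.4 or pH6.0. Dissociative half-life (t½) calculated from kd.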

Row | Binder | 100 nM monkey C5-mmh Bound (RU) [1] [RU] | Kd [1] [nM] | koff [1] [s⁻¹] | kon [1] [M⁻¹ s⁻¹] | t1/2 [1] [min] | 100 nM Human C5 R885H-mmh Bound (RU) [2] [RU] | Kd [2] [nM] | koff [2] [s⁻¹] | kon [2] [M⁻¹ s⁻¹] | t1/2 [2] [min] | 100 nM Human C5 R885C-mmh Bound (RU) [3] [RU] | Kd [3] [nM] | koff [3] [s⁻¹] | kon [3] [M⁻¹ s⁻¹] | t1/2 [3] [min] | 100 nM Human C5 R885H-mmh Bound (RU) [4] [RU] | Kd [4] [nM] | koff [4] [s⁻¹] | kon [4] [M⁻¹ s⁻¹] | t1/2 [4] [min] | also measured
1 | B1 | 60 | 1.67 | 0.000871 | 521000 | 13 | 64 | 1.5 | 0.000839 | 559000 | 14 | 61 | 2.05 | 0.00087 | 424000 | 13 | 442 | 0.394 | 0.000161 | 409000 | 72 | 100 nM Human C5 R885C-mmh Bound (RU) [5]: 427 RU; Kd [5]: 0.447 nM; koff [5]: 0.00016 s⁻¹; kon [5]: 357000 M⁻¹ s⁻¹; t1/2 [5]: 72 min; t1/2 Ratio pH7.4/pH6.0 [6]: ≤ 0.5
2 | B2 | 27 | 47.7 | 0.00717 | 150000 | 2 | 51 | 10 | 0.00276 | 276000 | 4 | 31 | 47.6 | 0.00507 | 107000 | 2 | 232 | 4.01 | 0.000592 | 148000 | 20 | 100 nM Human C5 R885C-mmh Bound (RU) [5]: 177 RU; Kd [5]: 13.2 nM; koff [5]: 0.00132 s⁻¹; kon [5]: 100000 M⁻¹ s⁻¹; t1/2 [5]: 9 min; t1/2 Ratio pH7.4/pH6.0 [6]: ≤ 0.5
